From FireProtDB (doi:10.1021/bi300982v) come the findings set out here.

B1: Cytochrome c-552, P04164 (parent)
chain: QADGAKIYAQCAGCHQQNGQGIPGAFPPLAGHVAEILAKEGGREYLILVLLYGLQGQIEVKGMKYNGVMSSFAQLKDEEIAAVLNHIATAWGDAKKVKGFKPFTAEEVKKLRAKKLTPQQVLAERKKLGLK

This series covers variants of B1. Particulars: Thermus thermophilus, pH 7, sodium phosphate 50 mM, transition: 2, reversible: yes, structure 1C52, whole UniProt chain shown; for denaturant midpoint (higher = more stable): 25 °C, GdnHCl; for Tm / change of melting temperature, mutant - wild type (higher = more stable) / heat capacity change of unfolding / unfolding enthalpy (calorimetric) / unfolding free energy: Thermal, CD.

Regarding M69H, the Tm – broadly, the temperature at the midpoint of the melting transition – came out at 99 °C; the “change of melting temperature, mutant - wild type (higher = more stable)” value stood at 4 °C; the “heat capacity change of unfolding” value came out at 0.51 kcal/mol/K; the “unfolding enthalpy (calorimetric)” value was determined as 59.3 kcal/mol. In addition, the unfolding free energy was found to be 8.13 kcal/mol. The “denaturant midpoint (higher = more stable)” value (from here on “denaturant midpoint”) (absorbance) came out at 3.7 M. In addition, the “denaturant midpoint” value (far-UV-CD) amounted to 4 M. Further, the “denaturant midpoint” value (heme-CD) was found to be 3.3 M.
For the variant M69A, the Tm was found to be 93 °C; the “change of melting temperature, mutant - wild type (higher = more stable)” value was -2 °C; the “heat capacity change of unfolding” value amounted to 0.29 kcal/mol/K; the “unfolding enthalpy (calorimetric)” value worked out at 28.2 kcal/mol. The unfolding free energy turned out to be 2.39 kcal/mol. In addition, for the setting “absorbance”, the “denaturant midpoint” value amounted to 4.2 M. For the same variant, the “denaturant midpoint” value (far-UV-CD) was 4.7 M. Further, the “denaturant midpoint” value (heme-CD) was found to be 4.5 M.
